Laboratory results taken from the supplement of paper PMC7877785.
± gives the uncertainty stated by the source.

Assay: self-splicing fitness, log relative to wild type (ln ratio); higher = more splicing; Tetrahymena group I intron in knt gene, E. coli kanamycin selection, DiMSum; sequences stand for … in CUCUCU…GGAGGGAAAAGUUAUCAGGCAUGCACCUGGUAGCUAGUCUUUAAACCAAUAGAUUGCAUCGGUUUAAAAGGCAAGACCGUCAAAUUGCGGGAAAGGGGUCAACAGCCGUUCAGUACCAAGUCUCAGGGGAAACUUUGAGAUGGCCUUGCAAAGGGUAUGGUAAUAAGCUGACGGACAUGGUCCUAACCACGCAGCCAAGUCCUAAGUCAACAGAUCUUCUGUUGAUAUGGAUGCAGUUCACAGACUAAAUGUCGGUCGGGGAAGAUGUAUUCUUCUCAUAAGAUAUAGUCGGACCUCUCCUUAAUGGGAGCUAGCGGAUGAAGUGAUGCAACACUGGAGCCGCUGGGAACUAAUUUGUAUGCGAAAGUAUAUUGAUUAGUUUUGGAGUACUCGUGGUCG
How it was run: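 DiMSum derived fitness as the error-weighted combination of fold changes across replicates, kanamycin versus no kanamycin, normalised to wild type. E. coli BL21(DE3) held the library, which randomised all eight P1ex-region intron nucleotides within the knt kanamycin-resistance gene on pET-22b(+). Six replicate transformations grew overnight at 37°C or 30°C on LB agar with or without 25 μg/mL kanamycin, also containing 100 μg/mL carbenicillin, 50 μM IPTG and 0.2% rhamnose, and pooled colonies were amplicon-sequenced on an Illumina HiSeq 2500.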

| Sequence | self-splicing fitness (ln) (30 °C) | self-splicing fitness (ln) (37 °C) |
| --- | --- | --- |
| UUCUAGCAAUAUUACGAGAU | -3.95 ± 0.33 | -2.67 ± 0.34 |
| ACAAAGCAAUAUUACGCUCU | -1.09 ± 0.063 | -0.102 ± 0.095 |
| GAUAAGCAAUAUUACGAUGA | -0.666 ± 0.097 | -0.376 ± 0.11 |
| CGAAAGCAAUAUUACGAGAU | -3.54 ± 0.34 | -1.55 ± 0.17 |
| UGUUAGCAAUAUUACGACGG | -0.352 ± 0.16 | -0.218 ± 0.18 |
| UCAUAGCAAUAUUACGCCGG | -1.25 ± 0.12 | -0.72 ± 0.12 |
| CCCGAGCAAUAUUACGUCAC | -2.9 ± 0.37 | -2.27 ± 0.49 |
| GACAAGCAAUAUUACGGACG | -1.75 ± 0.098 | -0.673 ± 0.12 |
| GCAAAGCAAUAUUACGUAUA | -1.65 ± 0.19 | -1.48 ± 0.19 |
| CGACAGCAAUAUUACGCCCC | -1.19 ± 0.16 | 0.564 ± 0.24 |
| UAUUAGCAAUAUUACGGAUC | -1.65 ± 0.18 | -0.508 ± 0.28 |
| UGCCAGCAAUAUUACGGACC | -0.869 ± 0.2 | 0.326 ± 0.23 |
| UGCAAGCAAUAUUACGAUAA | -0.8 ± 0.1 | -0.087 ± 0.12 |
| ACUGAGCAAUAUUACGUUAG | -3.64 ± 0.2 | -0.75 ± 0.19 |
| UCUAAGCAAUAUUACGUAAC | -4.19 ± 0.24 | -2.94 ± 0.24 |
| GUCGAGCAAUAUUACGACAG | -2.66 ± 0.23 | -1.75 ± 0.28 |
| ACUCAGCAAUAUUACGGCGU | -0.555 ± 0.059 | 0.0604 ± 0.074 |
| CCCCAGCAAUAUUACGCUCA | -3.21 ± 0.24 | -0.421 ± 0.17 |
| UUGCAGCAAUAUUACGAGCC | – | -2.7 ± 0.31 |
| UUCUAGCAAUAUUACGGAGA | -2.45 ± 0.29 | -2.41 ± 0.49 |
| GUGUAGCAAUAUUACGGGUG | -2.72 ± 0.14 | -1.13 ± 0.13 |
| UCGAAGCAAUAUUACGUUAA | -2.99 ± 0.19 | -0.482 ± 0.14 |
| AGGUAGCAAUAUUACGUGUC | -3.313 ± 0.024 | -2.07 ± 0.037 |
| UCUAAGCAAUAUUACGAGAU | – | -0.699 ± 0.22 |
| UUUCAGCAAUAUUACGUGAA | -0.761 ± 0.061 | -0.17 ± 0.088 |
| GACUAGCAAUAUUACGAACG | -1.34 ± 0.11 | -0.144 ± 0.15 |
| CACCAGCAAUAUUACGUCCC | -4.07 ± 0.31 | -2.79 ± 0.32 |
| UAAUAGCAAUAUUACGGUUC | -2.91 ± 0.29 | – |

| Sequence | self-splicing fitness (ln) (30 °C) | self-splicing fitness (ln) (37 °C) |
| --- | --- | --- |
| GGCGAGCAAUAUUACGCAUC | -2.15 ± 0.15 | -1.05 ± 0.14 |
| CGCCAGCAAUAUUACGCUUU | -2.9 ± 0.13 | -1.13 ± 0.12 |
| AGACAGCAAUAUUACGCUGA | -2.39 ± 0.16 | -1.75 ± 0.19 |
| AGAGAGCAAUAUUACGUAGC | -4.09 ± 0.3 | -3.62 ± 0.46 |
| AGUAAGCAAUAUUACGGAUG | -3.1 ± 0.25 | -2.2 ± 0.26 |
| GUUUAGCAAUAUUACGAAUG | -1.2 ± 0.18 | -0.733 ± 0.18 |
| UUAGAGCAAUAUUACGAUGC | -2.04 ± 0.21 | -2.57 ± 0.41 |
| UCCUAGCAAUAUUACGCGCC | -2.63 ± 0.17 | -2.29 ± 0.24 |
| AGUCAGCAAUAUUACGCCUU | -0.221 ± 0.11 | 0.301 ± 0.13 |
| GGCUAGCAAUAUUACGAAUC | 0.199 ± 0.18 | 0.239 ± 0.19 |
| UGCCAGCAAUAUUACGGCCA | -0.44 ± 0.076 | -0.0136 ± 0.086 |
| UUUUAGCAAUAUUACGCAUG | -1.3 ± 0.12 | -0.672 ± 0.13 |
| CGAAAGCAAUAUUACGCUGG | -1.66 ± 0.11 | -0.903 ± 0.14 |
| ACGAAGCAAUAUUACGACCC | -0.88 ± 0.22 | 0.121 ± 0.26 |
| CAUGAGCAAUAUUACGGAGU | -4.1 ± 0.4 | -3.1 ± 0.31 |
| CCGUAGCAAUAUUACGACAG | -0.678 ± 0.11 | -0.234 ± 0.13 |
| CGUCAGCAAUAUUACGUUCC | -2.43 ± 0.16 | -1.18 ± 0.23 |
| CCAUAGCAAUAUUACGACGC | -2.27 ± 0.26 | -2.51 ± 0.39 |
| CUAGAGCAAUAUUACGGAAG | -0.402 ± 0.07 | -0.264 ± 0.1 |
| CUGCAGCAAUAUUACGGAGU | -3.05 ± 0.14 | -1.65 ± 0.13 |
| AAUCAGCAAUAUUACGCACC | -0.409 ± 0.17 | 0.0564 ± 0.22 |
| GGAAAGCAAUAUUACGUUGU | -4.15 ± 0.23 | -2.19 ± 0.15 |
| AAAGAGCAAUAUUACGUAAU | -2.16 ± 0.15 | 0.0244 ± 0.13 |
| GGUCAGCAAUAUUACGAUGA | -0.626 ± 0.087 | 0.0621 ± 0.099 |
| CUGCAGCAAUAUUACGGCUC | -2.57 ± 0.22 | -2.96 ± 0.43 |
| UUAAAGCAAUAUUACGUACC | -1.73 ± 0.12 | -0.333 ± 0.16 |
| AAAUAGCAAUAUUACGUGAA | -3.08 ± 0.12 | -0.845 ± 0.097 |
